Test results published in publication PMC2805716, “Critical Structural and Functional Roles for the N-Terminal Insertion Sequence in Surfactant Protein B Analogs” (PLoS ONE, 2010).
Blank lines part the entries; values can stand above or below the molecule they belong to. Where a SMILES comes first, the peptide text is derived from it. Bridges are numbered along the chain shown (N, C = ends). Where no end group is shown, it is not given here.

What was measured:
chip-linked Cys-MB = biological target: T1, chip-linked Cys-MB (Homo sapiens, UniProt P07988, DEL226-262); experiment: SPR binding to chip-linked Cys-MB; details: HBS-EP buffer pH 7.4 with 0.005% P20, 37°C, 1 µg peptide/ml, mean; for koff / kon: 50 µl/min
T1 construct: made in house; host or cells: chemical solid-phase peptide synthesis (Fmoc), no expression host
Experimental: (§1) The respective binding affinities of S-MB and MB, both to themselves (self-association) and to each other (cross-association), were measured with surface plasmon resonance (SPR) spectroscopy using a Biacore 3000 system (Biacore, Uppsala, Sweden), [59]. S-MB and MB, each with a cysteine added to its N-terminus, were chemically linked to a thiol Biacore chip (BR-1000-14, research grade, containing a carboxymethylated dextran matrix covalently attached to a gold film). Solutions of peptide in HBS-EP buffer (i.e., 10 mM Hepes, pH 7.4, 150 mM NaCl, 3 mM EDTA, 0.005% surfactant P20) were then flowed over the chip-linked peptide at a flow rate of 50 µl/min to determine binding affinity at 37°C. Assessment of peptide binding was determined with sensorgrams, in which the arbitrary response units (RU) were plotted as a function of time. Binding associated with control medium containing no peptide was subtracted from final affinity curves, and mean “on” and “off” rate constants (kon and koff) and the dissociation equilibrium constant (KD = koff/kon) were calculated using BIAevaluation Software Version 4.1 based on curve fitting form measurements at 1 µg peptide/ml buffer concentration. The sensor surface was regenerated using 10 mM HCl between sample injections.

chip-linked Cys-S-MB = biological target: T2, chip-linked Cys-S-MB (Homo sapiens, UniProt P07988, DEL226-262); experiment: SPR binding to chip-linked Cys-S-MB; details: HBS-EP buffer pH 7.4 with 0.005% P20, 37°C, 50 µl/min, 1 µg peptide/ml; mean
T2 construct: made in house; host or cells: chemical solid-phase peptide synthesis (Fmoc), no expression host
T2 sequence (P07988 with tags, fused parts or gaps DEL226-262): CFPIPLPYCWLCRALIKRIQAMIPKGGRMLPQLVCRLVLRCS
Experimental: as §1

[1] = Captive bubble surfactometry, dynamic surface activity; format: physicochemical; details: for minimum surface tension: 1.5 mol% in synthetic lipids 16:10:6:1:2 (weight) DPPC:POPC:POPG:POPE:cholesterol, 20 cycles/min, ten cycles, 37°C, n = 4
Experimental: The captive bubble surfactometer used here was a fully-computerized version of that described by Schurch and co-workers [79]–[81]. In brief, the sample chamber of the apparatus was cut from high-quality cylindrical glass tubing (10 mm inner diameter). A Teflon® piston with a tight O-ring seal was fitted into the glass tubing from the top end, with a plug of buffered 1% agarose gel inserted between the piston and the surfactant solution that was added through a stainless steel port from the other end of the sample chamber. The chamber and piston were vertically mounted in a steel rack, the height of which was regulated by a precision micrometer gear. In a typical experiment, the chamber was filled with a buffered salt solution (140 mM NaCl, 10 mM HEPES, 2.5 mM CaCl2, pH 6.9) containing 10% sucrose. One µl of surfactant solution containing 35 µg of lipid was added to this subphase, which was stirred by a small magnetic bar at 37°C. The subphase volume in the sample chamber averaged 0.7 ml (0.5–1 ml), resulting in a final average surfactant lipid concentration of 50 µg/ml (35–75 µg/ml). An air bubble approximately 7 mm in diameter (∼200 µl in volume) was then introduced within the sample chamber and subjected to cyclic volume (surface area) changes by systematically varying the height of the steel rack following a 5 min pause to allow adsorption to the air-water interface. The ionic composition of the buffered agarose plug minimized bubble adhesion to the plug during cycling, so that an uninterrupted bubble interface was maintained. […] Bubble images were continuously monitored during compression-decompression using a digital video camera (PULNIX Model TM-200, Pulmix America Inc, Sunnyvale, CA) and a professional video recorder (Panasonic AG-1980P, Secaucus, NJ) coupled to a computer with an Intel Pentium 4 processor. […] Bubble areas and volumes were calculated by an original algorithm relating bubble height and diameter to areas of revolution, and bubble surface tension was determined by the method of Malcolm and Elliot. […]

[2] = test system: ventilated rats with ARDS induced by in vivo lavage; experiment: Ventilated lung-lavaged rat model of ARDS; design: species or system Sprague-Dawley rats; details: n = 8–10; for relative order of pulmonary activity (oxygenation and compliance): 90 min after intratracheal 100 mg/kg surfactant; for arterial oxygenation (PaO2) / dynamic lung compliance: synthetic lipids +1.5 mol% peptide, 90 min; for arterial oxygenation (PaO2): 100% oxygen
Experimental: Animal experiments were performed under established protocols approved by the Animal Care and Use Committee at the Los Angeles Biomedical Research Institute at Harbor-UCLA Medical Center. Anesthesia, surgery, lavage, ventilation, and monitoring methods used have been detailed previously [35]–[37]. Briefly, adult male Sprague-Dawley rats weighing 200–225 g were anesthetized with 35 mg/kg pentobarbital sodium and 80 mg/kg ketamine by intraperitoneal injection, intubated, and ventilated with a rodent ventilator (Harvard Apparatus, South Natick, MA) with 100% oxygen, a tidal volume of 7.5 ml/kg and a rate of 60/min. An arterial line was placed in the abdominal aorta for measurements of arterial blood pressure and blood gases. Rats were paralyzed with 1 mg/kg pancuronium bromide intravenously. Only animals with PaO2 values >400 torr while ventilated with 100% oxygen and with normal blood pressure values were included in the experiments. Airway pressures were measured with a pressure transducer (Gould Inc., Cleveland, OH) and tidal volume with a pneumotachometer (Validyne, Northridge, CA) connected to a multi-channel recorder (Gould Inc., Cleveland, OH). The lungs were lavaged 8–12 times with 8 ml of pre-warmed 0.9% NaCl. After the PaO2 in 100% oxygen had reached stable values of <100 torr, the rats were treated with 100 mg/kg of experimental surfactant by intratracheal instillation. Arterial blood gases, tidal volume and airway pressures were determined at 15 min intervals throughout each experiment. Dynamic lung compliance was calculated by dividing tidal volume/kg body weight by changes in airway pressure (peak inspiratory pressure minus positive end-expiratory pressure) (mL/kg/cmH2O). Ninety minutes after surfactant instillation, rats were killed with 200 mg/kg pentobarbital sodium intravenously. Each treatment group consisted of 8–10 animals.

[3] = FTIR, methanol; ref [30]; cited from earlier work
Description: Although the “10 nsec” MD simulation of dimer S-MB provides a reasonable framework to account for our SDS-PAGE and SPR results (Figs. 8 and 10), it is worthwhile to consider other structural models by which the N-terminal insertion sequence may promote the self-association of S-MB. One possible alternative is that oligomeric S-MB may be due to the N-terminal sequence (residues 1-7) forming β-sheet. The N-terminal SP-B(1–9) (Fig. 2) was earlier proposed to act as a ‘biochemical Velcro®,’ facilitating in vivo either the aggregation of SP-B or the interactions of SP-B with SP-C [50]. In support ...

[4] = biological target: T3, Cys-MB (Mini-B with a cysteine added to its N-terminus, chip-linked) (human); experiment: SPR; Biacore 3000; Cys-MB or Cys-S-MB linked to a thiol chip; MB or S-MB at 1 µg peptide/ml in HBS-EP (10 mM Hepes, pH 7.4, 150 mM NaCl, 3 mM EDTA, 0.005% surfactant P20) flowed over at 50 µl/min, 37°C; constants from curve fitting at the one concentration; details: both partners purified
T3 construct: cysteine added to the N-terminus to link the peptide to the thiol Biacore chip; surfactant protein B (SP-B), human, residues 8-25; numbers count on: the mature protein (79 residues); surfactant protein B (SP-B), human, residues 63-78; Immobilised on the SPR chip; also called chipped MB; N-terminal Cys-MB
T3 chain: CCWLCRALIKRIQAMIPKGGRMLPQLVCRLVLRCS

[5] = biological target: T4, Cys-S-MB (Super Mini-B with a cysteine added to its N-terminus, chip-linked) (human); experiment: as above; details: both partners purified
T4 construct: cysteine added to the N-terminus to link the peptide to the thiol Biacore chip; surfactant protein B (SP-B), human, residues 1-25; numbers count on: the mature protein (79 residues); surfactant protein B (SP-B), human, residues 63-78; Immobilised on the SPR chip; also called chipped S-MB; N-terminal Cys-S-MB
T4 chain: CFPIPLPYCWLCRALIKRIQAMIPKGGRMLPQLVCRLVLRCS

[6] = lipid monolayers containing palmitic acid; ref [31], [32]; cited from earlier work
Description: Previous structural and functional studies with synthetic peptides representing the N- and C-terminal regions of SP-B further support the hypothesis that these charged amphipathic helices participate in surfactant activities. […] The cationic N-terminus of SP-B may here interact with anionic lipids to remove the driving force for lipid squeeze-out from the surface film, [32]. In additional studies, SP-B(1–25 ...

[7] = intratracheal 100 mg/kg surfactant

koff (chip-linked Cys-MB): 0.0168 s⁻¹ | kon (chip-linked Cys-MB): 91900 M⁻¹ s⁻¹ | Kd (chip-linked Cys-MB; KD = koff/kon): 183 nM | koff (chip-linked Cys-S-MB): 0.00806 s⁻¹ | kon (chip-linked Cys-S-MB): 200000 M⁻¹ s⁻¹
Molecule: CC[C@H](C)[C@@H]1NC(=O)[C@H](CCCNC(=N)N)NC(=O)[C@H](CCCCN)NC(=O)[C@H]([C@@H](C)CC)NC(=O)[C@H](CC(C)C)NC(=O)[C@H](C)NC(=O)[C@H](CCCNC(=N)N)NC(=O)[C@@H]2CSSC[C@H](NC(=O)[C@H](C(C)C)NC(=O)[C@H](CC(C)C)NC(=O)[C@H](CCC(N)=O)NC(=O)[C@@H]3CCCN3C(=O)[C@H](CC(C)C)NC(=O)[C@H](CCSC)NC(=O)[C@H](CCCNC(=N)N)NC(=O)CNC(=O)CNC(=O)[C@H](CCCCN)NC(=O)[C@@H]3CCCN3C(=O)[C@H]([C@@H](C)CC)NC(=O)[C@H](CCSC)NC(=O)[C@H](C)NC(=O)[C@H](CCC(N)=O)NC1=O)C(=O)N[C@@H](CCCNC(=N)N)C(=O)N[C@@H](CC(C)C)C(=O)N[C@@H](C(C)C)C(=O)N[C@@H](CC(C)C)C(=O)N[C@@H](CCCNC(=N)N)C(=O)N[C@H](C(=O)N[C@@H](CO)C(=O)O)CSSC[C@H](N)C(=O)N[C@@H](Cc1c[nH]c3ccccc13)C(=O)N[C@@H](CC(C)C)C(=O)N2 [MB] (H-CWLCRALIKRIQAMIPKGGRMLPQLVCRLVLRCS-OH; disulfide 1-33, 4-27)

koff (chip-linked Cys-MB): 0.00736 s⁻¹ | kon (chip-linked Cys-MB): 141000 M⁻¹ s⁻¹ | koff (chip-linked Cys-S-MB): 0.000901 s⁻¹ | kon (chip-linked Cys-S-MB): 44700 M⁻¹ s⁻¹
Molecule: FPIPLPYCWLCRALIKRIQAMIPKGGRMLPQLVCRLVLRCS (disulfide 8-40, 11-34) [S-MB]

Molecule: H-FPIPLPYC-NH2 [SP-B(1–8)]
minimum surface tension [1]: 20 mN/m | statistical comparison of minimum surface tension ([1]; after ten cycles, versus S-MB, MB and pig SP-B surfactants): significantly higher | relative order of pulmonary activity (oxygenation and compliance) [2]: S-MB > MB > pig SP-B > SP-B(1–8)> lipids alone | arterial oxygenation (PaO2) [2, 7]: minimal effects | dynamic lung compliance [2, 7]: minimal effects

Molecule: SP-B(1–9): N-terminal SP-B(1–9) peptide (FPIPLPYCW; Pulmonary surfactant-associated protein B; UniProt P07988 201-209, looked up, fragment)
β-sheet content [3]: 26.3% | β-sheet content in residues [3]: ~2.4 residues

Kd [4]: 183 nM | koff [4]: 0.0168 s⁻¹ | kon [4]: 91900 M⁻¹ s⁻¹ | Kd [5]: 40.4 nM | koff [5]: 0.00806 s⁻¹ | kon [5]: 200000 M⁻¹ s⁻¹
B1: Mini-B (peptide)
chain: CWLCRALIKRIQAMIPKGGRMLPQLVCRLVLRCS
notes: surfactant protein B (SP-B), human, residues 8-25 (N-terminal helix region); numbers count on: the mature protein (79 residues); surfactant protein B (SP-B), human, residues 63-78 (C-terminal helix region); Oxidised form with intramolecular disulfides Cys-8 to Cys-40 and Cys-11 to Cys-34 (S-MB numbering); also called MB; source: synthetic peptide (Fmoc solid phase, HPLC-purified, air-oxidised)

B2: SP-B: 79 amino acids, lipid-associating lung protein, covalently linked homodimer (protein, UniProt P07988 201-279, looked up)
Pulmonary …: FPIPLPYCWLCRALIKRIQAMIPKGALAVAVAQVCRVVPLVAGGICQCLAERYSVILLDTLLGRMLPQLVCRLVLRCSM
modifications: Pulmonary surfactant-associated protein B
notes: 79 amino acids, lipid-associating lung protein, covalently linked homodimer
collapse pressure of lipid monolayers [6]: increase the collapse pressure

B3: pig SP-B: native pig SP-B, positive control (protein, UniProt P15782 1-79, looked up)
Pulmonary …: FPIPLPFCWLCRTLIKRIQAVVPKGVLLKAVAQVCHVVPLPVGGICQCLAERYIVICLNMLLDRTLPQLVCGLVLRCSS
modifications: Pulmonary surfactant-associated protein B
notes: native pig SP-B, positive control
minimum surface tension [1]: < 3 mN/m | relative order of pulmonary activity (oxygenation and compliance) [2]: S-MB > MB > pig SP-B > SP-B(1–8)> lipids alone | arterial oxygenation (PaO2) [2, 7]: increased quickly | dynamic lung compliance [2, 7]: increased quickly | oxygenation and compliance versus SP-B1-8 and lipids only surfactants [2, 7]: consistently surpassed the performance of SP-B1-8 and lipids only surfactants (p<0.001) | significance of differences in oxygenation and compliance between S-MB, MB and pig SP-B [2, 7]: statistically significant (p<0.05) starting at 30 min after surfactant instillation
